We go through 40 sequences from the supplement of paper PMC7877785.

The nature of the data set: self-splicing fitness, log relative to wild type (ln ratio); higher = more splicing; Tetrahymena group I intron in knt gene, E. coli kanamycin selection, DiMSum; sequences stand for … in CUCUCU…GGAGGGAAAAGUUAUCAGGCAUGCACCUGGUAGCUAGUCUUUAAACCAAUAGAUUGCAUCGGUUUAAAAGGCAAGACCGUCAAAUUGCGGGAAAGGGGUCAACAGCCGUUCAGUACCAAGUCUCAGGGGAAACUUUGAGAUGGCCUUGCAAAGGGUAUGGUAAUAAGCUGACGGACAUGGUCCUAACCACGCAGCCAAGUCCUAAGUCAACAGAUCUUCUGUUGAUAUGGAUGCAGUUCACAGACUAAAUGUCGGUCGGGGAAGAUGUAUUCUUCUCAUAAGAUAUAGUCGGACCUCUCCUUAAUGGGAGCUAGCGGAUGAAGUGAUGCAACACUGGAGCCGCUGGGAACUAAUUUGUAUGCGAAAGUAUAUUGAUUAGUUUUGGAGUACUCGUGGUCG
In a few lines: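 The eight P1ex-region nucleotides of an intron in the knt kanamycin-resistance gene on pET-22b(+) were all randomised and the library put into E. coli BL21(DE3). Six replicate transformations were grown overnight at 37°C or 30°C on LB agar with or without 25 μg/mL kanamycin, together with 100 μg/mL carbenicillin, 50 μM IPTG and 0.2% rhamnose. Colonies were pooled and amplicon-sequenced on an Illumina HiSeq 2500. Fitness from DiMSum is the error-weighted combination of wild-type-normalised replicate fold changes, kanamycin over none.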

± gives the uncertainty stated by the source.

On to CAUAAGCAAUAUUACGCUCG, for which the “self-splicing fitness (ln)” value by setting is: (30 °C) -0.821 ± 0.11; (37 °C) -0.252 ± 0.12. On to UCCUAGCAAUAUUACGAACU, for which the “self-splicing fitness (ln)” value runs as follows: (30 °C) -2.54 ± 0.19; (37 °C) -1.6 ± 0.23. As for AUGCAGCAAUAUUACGAUCC, the “self-splicing fitness (ln)” value is -1.78 ± 0.22 (30 °C) and -0.259 ± 0.29 (37 °C).

On to GCAGAGCAAUAUUACGGGUA, for which the “self-splicing fitness (ln)” value is -3.16 ± 0.18 (30 °C) and -3.68 ± 0.33 (37 °C). CUGCAGCAAUAUUACGUUUA: the “self-splicing fitness (ln)” value is, setting by setting: (30 °C) -2.64 ± 0.19; (37 °C) -1.21 ± 0.19. As to ACCUAGCAAUAUUACGCGUG, the “self-splicing fitness (ln)” value is -0.901 ± 0.077 (30 °C) and -0.11 ± 0.1 (37 °C). ACUGAGCAAUAUUACGGACU: the “self-splicing fitness (ln)” value (30 °C) was -1.08 ± 0.077 and the “self-splicing fitness (ln)” value (37 °C) is -0.672 ± 0.093. As to CUUAAGCAAUAUUACGAGCG, the “self-splicing fitness (ln)” value (30 °C) was -0.691 ± 0.1 and the “self-splicing fitness (ln)” value (37 °C) is -0.156 ± 0.15.

For AAAUAGCAAUAUUACGGGCC, the “self-splicing fitness (ln)” value runs as follows: (30 °C) -2.49 ± 0.32; (37 °C) -2.55 ± 0.41. Regarding GACUAGCAAUAUUACGUAUC, the “self-splicing fitness (ln)” value is, setting by setting: (30 °C) -2.74 ± 0.11; (37 °C) -1.98 ± 0.12.

Regarding GGAGAGCAAUAUUACGCGGG, the “self-splicing fitness (ln)” value (30 °C) was -2.21 ± 0.35. With GAAGAGCAAUAUUACGAUGA, the “self-splicing fitness (ln)” value (30 °C) was -3.03 ± 0.31 and the “self-splicing fitness (ln)” value (37 °C) is -1.57 ± 0.17. Regarding CGGCAGCAAUAUUACGUAAC, the “self-splicing fitness (ln)” value (30 °C) is -1.24 ± 0.21.

Regarding UACAAGCAAUAUUACGCAAG, the “self-splicing fitness (ln)” value is, setting by setting: (30 °C) -2.81 ± 0.12; (37 °C) -1.6 ± 0.11. For CGAGAGCAAUAUUACGCGCU, the “self-splicing fitness (ln)” value (30 °C) is -2.04 ± 0.38.

Turning to GGUAAGCAAUAUUACGGCUC, the “self-splicing fitness (ln)” value (30 °C) was -0.214 ± 0.14 and the “self-splicing fitness (ln)” value (37 °C) is -0.443 ± 0.16. Take UCGUAGCAAUAUUACGAAUA: the “self-splicing fitness (ln)” value (37 °C) was -2.55 ± 0.27. Consider UGAAAGCAAUAUUACGCUGG, for which the “self-splicing fitness (ln)” value reads like this: (30 °C) -2.59 ± 0.16; (37 °C) -1.27 ± 0.19. AACCAGCAAUAUUACGACAC: the “self-splicing fitness (ln)” value (30 °C) is -1.07 ± 0.08 and the “self-splicing fitness (ln)” value (37 °C) was -0.426 ± 0.1. On to UGUCAGCAAUAUUACGAACU, for which the “self-splicing fitness (ln)” value is, setting by setting: (30 °C) -0.744 ± 0.086; (37 °C) -0.0942 ± 0.086.

For UAAAAGCAAUAUUACGUUUA, the “self-splicing fitness (ln)” value (30 °C) was -1.14 ± 0.099 and the “self-splicing fitness (ln)” value (37 °C) is -0.871 ± 0.099.

For AGCGAGCAAUAUUACGAGUC, the “self-splicing fitness (ln)” value runs as follows: (30 °C) -3.91 ± 0.42; (37 °C) -2.24 ± 0.24. In the case of GUGUAGCAAUAUUACGUCGC, under “30 °C”, the “self-splicing fitness (ln)” value is -2.48 ± 0.26. With CACAAGCAAUAUUACGUAUG, the “self-splicing fitness (ln)” value by setting is: (30 °C) -2.55 ± 0.095; (37 °C) -1.08 ± 0.085. GUACAGCAAUAUUACGCAUC: the “self-splicing fitness (ln)” value is -3.74 ± 0.23 (30 °C) and -1.36 ± 0.19 (37 °C). As to CCAUAGCAAUAUUACGAAGU, the “self-splicing fitness (ln)” value (30 °C) was -3.61 ± 0.21 and the “self-splicing fitness (ln)” value (37 °C) is -2.64 ± 0.22. In the case of ACUUAGCAAUAUUACGAACU, the “self-splicing fitness (ln)” value (30 °C) is -0.706 ± 0.12 and the “self-splicing fitness (ln)” value (37 °C) was -0.193 ± 0.14. On to GAGGAGCAAUAUUACGUCAG, for which the “self-splicing fitness (ln)” value (30 °C) is -3.5 ± 0.37. On to GUCUAGCAAUAUUACGCAAA, for which the “self-splicing fitness (ln)” value is -1.12 ± 0.13 (30 °C) and -0.541 ± 0.12 (37 °C). For the sequence CUAAAGCAAUAUUACGGCAG, the “self-splicing fitness (ln)” value runs as follows: (30 °C) -0.0254 ± 0.076; (37 °C) -0.422 ± 0.098. In the same order, the values of UGUCAGCAAUAUUACGCAGC are -3.7 ± 0.32 and -0.622 ± 0.24. For the sequence CCUCAGCAAUAUUACGCGCG, the “self-splicing fitness (ln)” value (30 °C) was -2.78 ± 0.13 and the “self-splicing fitness (ln)” value (37 °C) is -1.45 ± 0.13. As to AAGAAGCAAUAUUACGGAUA, the “self-splicing fitness (ln)” value (30 °C) was -1.67 ± 0.1 and the “self-splicing fitness (ln)” value (37 °C) was -1.38 ± 0.12. Consider AUUAAGCAAUAUUACGUAUC, for which the “self-splicing fitness (ln)” value was -3.93 ± 0.25 (30 °C) and -2.31 ± 0.24 (37 °C). CUUUAGCAAUAUUACGUUGU: the “self-splicing fitness (ln)” value by setting is: (30 °C) -3.88 ± 0.17; (37 °C) -3.45 ± 0.21.

As for UUAUAGCAAUAUUACGCAUA, the “self-splicing fitness (ln)” value runs as follows: (30 °C) -2.43 ± 0.29; (37 °C) -0.953 ± 0.18.

As for CCACAGCAAUAUUACGAGAU, the “self-splicing fitness (ln)” value is -3.37 ± 0.14 (30 °C) and -1.65 ± 0.14 (37 °C). For the sequence AACAAGCAAUAUUACGACCC, the “self-splicing fitness (ln)” value reads like this: (30 °C) -0.136 ± 0.22; (37 °C) 0.116 ± 0.24. Consider UACUAGCAAUAUUACGAACG, for which the “self-splicing fitness (ln)” value runs as follows: (30 °C) -0.328 ± 0.15; (37 °C) -0.12 ± 0.18. On to AAUGAGCAAUAUUACGUCUA, for which the “self-splicing fitness (ln)” value was -2.27 ± 0.24 (30 °C) and -1.59 ± 0.18 (37 °C).
